Test: in vivo
Settings: BALB/c nude, mouse, iv, total radioactivity
How it was run: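 Tissue uptake given as % ID and % ID/g from γ counting of organs taken 4, 24 and 72 h after injection into BALB/c nude mice carrying subcutaneous AR42J xenografts (0.05-0.50 g). Tracers were ^177Lu-labelled at 95° C for 15 min in pH 4.5 NaOAc buffer and used neat or diluted in PBS containing 3 mg/mL ascorbate.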

| SMILES | tissue uptake at 4 h (in vivo, % ID/g Blood) | tissue uptake at 24 h (in vivo, % ID/g Blood) | tissue uptake at 4 h (in vivo, % ID/g Femur) | tissue uptake at 24 h (in vivo, % ID/g Femur) | tissue uptake at 4 h (in vivo, % ID/g Heart) | tissue uptake at 24 h (in vivo, % ID/g Heart) | tissue uptake at 4 h (in vivo, % ID/g Intestine) | tissue uptake at 24 h (in vivo, % ID/g Intestine) | tissue uptake at 4 h (in vivo, % ID/g Kidney) | tissue uptake at 24 h (in vivo, % ID/g Kidney) | tissue uptake at 4 h (in vivo, % ID/g Liver) | tissue uptake at 24 h (in vivo, % ID/g Liver) | tissue uptake at 4 h (in vivo, % ID/g Lung) | tissue uptake at 24 h (in vivo, % ID/g Lung) | tissue uptake at 4 h (in vivo, % ID/g Muscle) | tissue uptake at 24 h (in vivo, % ID/g Muscle) | tissue uptake at 4 h (in vivo, % ID/g Pancreas) | tissue uptake at 4 h (in vivo, % ID/g Spleen) | tissue uptake at 24 h (in vivo, % ID/g Spleen) | tissue uptake at 4 h (in vivo, % ID/g Stomach) | also measured |
| --- | --- | --- | --- | --- | --- | --- | --- | --- | --- | --- | --- | --- | --- | --- | --- | --- | --- | --- | --- | --- | --- |
| C[C@@H](O)[C@H](NC(=O)[C@@H]1CSSC[C@H](NC(=O)[C@@H](Cc2ccccc2)NC(=O)COCCOCCNC(=O)[C@H](CCCCNC(=O)CCC(C(=O)O)N2CCN(CC(=O)O)CCN(CC(=O)O)CCN(CC(=O)O)CC2)NC(=O)COCCOCCNC(=O)CC[C@H](NC(=O)CC[C@H](NC(=O)c2cccc(NC(=O)N[C@@H]3CN(C4CCCCC4)c4ccccc4N(CC(=O)C(C)(C)C)C3=O)c2)C(=O)O)C(=O)O)C(=O)N[C@@H](Cc2ccc(O)cc2)C(=O)N[C@H](Cc2c[nH]c3ccccc23)C(=O)N[C@@H](CCCCN)C(=O)N[C@@H]([C@@H](C)O)C(=O)N1)C(=O)O (some centres unmarked) [^177Lu-1-13, metal not drawn] | 0.64 %ID/g | 0.09 %ID/g | 0.21 %ID/g | 0.27 %ID/g | 0.54 %ID/g | 0.19 %ID/g | 0.89 %ID/g | 0.37 %ID/g | 58.6 %ID/g | 46.7 %ID/g | 0.79 %ID/g | 1.21 %ID/g | 1.57 %ID/g | 0.43 %ID/g | 0.08 %ID/g | 0.08 %ID/g | 1.59 %ID/g | 0.43 %ID/g | 0.47 %ID/g | 2.23 %ID/g | tissue uptake at 4 h (in vivo, % ID/g Adrenal gland): 3.6 %ID/g; tissue uptake at 24 h (in vivo, % ID/g Adrenal gland): 0.81 %ID/g; tissue uptake at 72 h (in vivo, % ID/g Adrenal gland): 0.73 %ID/g; tissue uptake at 72 h (in vivo, % ID/g Blood): 0.03 %ID/g; tissue uptake at 72 h (in vivo, % ID/g Femur): 0.14 %ID/g; tissue uptake at 72 h (in vivo, % ID/g Heart): 0.11 %ID/g; tissue uptake at 72 h (in vivo, % ID/g Intestine): 0.22 %ID/g; tissue uptake at 72 h (in vivo, % ID/g Kidney): 22.5 %ID/g; tissue uptake at 72 h (in vivo, % ID/g Liver): 0.52 %ID/g; tissue uptake at 72 h (in vivo, % ID/g Lung): 0.38 %ID/g; tissue uptake at 72 h (in vivo, % ID/g Muscle): 0.05 %ID/g; tissue uptake at 24 h (in vivo, % ID/g Pancreas): 1.21 %ID/g; tissue uptake at 72 h (in vivo, % ID/g Pancreas): 0.91 %ID/g; tissue uptake at 72 h (in vivo, % ID/g Spleen): 0.64 %ID/g; tissue uptake at 24 h (in vivo, % ID/g Stomach): 2.19 %ID/g; tissue uptake at 72 h (in vivo, % ID/g Stomach): 1.95 %ID/g; tissue uptake at 4 h (in vivo, % ID/g Tumor): 14.6 %ID/g; tissue uptake at 24 h (in vivo, % ID/g Tumor): 14.8 %ID/g; tissue uptake at 72 h (in vivo, % ID/g Tumor): 6.83 %ID/g |
| C[C@@H](O)[C@H](NC(=O)[C@@H]1CSSC[C@H](NC(=O)[C@@H](Cc2ccccc2)NC(=O)COCCOCCNC(=O)[C@H](CCCCNC(=O)CC[C@H](NC(=O)CNC(=O)c2cccc(NC(=O)N[C@@H]3CN(C4CCCCC4)c4ccccc4N(CC(=O)C(C)(C)C)C3=O)c2)C(=O)O)NC(=O)COCCOCCNC(=O)CC[C@H](NC(=O)CC[C@H](NC(=O)CN2CCN(CC(=O)O)CCN(CC(=O)O)CCN(CC(=O)O)CC2)C(=O)O)C(=O)O)C(=O)N[C@@H](Cc2ccc(O)cc2)C(=O)N[C@H](Cc2c[nH]c3ccccc23)C(=O)N[C@@H](CCCCN)C(=O)N[C@@H]([C@@H](C)O)C(=O)N1)C(=O)O [^177Lu-1-14, metal not drawn] | 1.32 %ID/g | 0.09 %ID/g | 0.49 %ID/g | 0.4 %ID/g | 0.8 %ID/g | 0.17 %ID/g | 0.6 %ID/g | 1.25 %ID/g | 48.2 %ID/g | 68.6 %ID/g | 3.31 %ID/g | 2.24 %ID/g | 1.32 %ID/g | 0.72 %ID/g | 0.17 %ID/g | 0.17 %ID/g | 2.11 %ID/g | 0.64 %ID/g | 0.56 %ID/g | 3.68 %ID/g | tissue uptake at 4 h (in vivo, % ID/g Adrenal gland): 3.55 %ID/g; tissue uptake at 24 h (in vivo, % ID/g Adrenal gland): 2.72 %ID/g; tissue uptake at 72 h (in vivo, % ID/g Adrenal gland): 1.44 %ID/g; tissue uptake at 72 h (in vivo, % ID/g Blood): 0.02 %ID/g; tissue uptake at 72 h (in vivo, % ID/g Femur): 0.31 %ID/g; tissue uptake at 72 h (in vivo, % ID/g Heart): 0.19 %ID/g; tissue uptake at 72 h (in vivo, % ID/g Intestine): 0.37 %ID/g; tissue uptake at 72 h (in vivo, % ID/g Kidney): 24.3 %ID/g; tissue uptake at 72 h (in vivo, % ID/g Liver): 1.28 %ID/g; tissue uptake at 72 h (in vivo, % ID/g Lung): 0.95 %ID/g; tissue uptake at 72 h (in vivo, % ID/g Muscle): 0.11 %ID/g; tissue uptake at 24 h (in vivo, % ID/g Pancreas): 3.37 %ID/g; tissue uptake at 72 h (in vivo, % ID/g Pancreas): 3.14 %ID/g; tissue uptake at 72 h (in vivo, % ID/g Spleen): 2.17 %ID/g; tissue uptake at 24 h (in vivo, % ID/g Stomach): 2.25 %ID/g; tissue uptake at 72 h (in vivo, % ID/g Stomach): 2.99 %ID/g; tissue uptake at 4 h (in vivo, % ID/g Tumor): 30.9 %ID/g; tissue uptake at 24 h (in vivo, % ID/g Tumor): 14.9 %ID/g; tissue uptake at 72 h (in vivo, % ID/g Tumor): 18 %ID/g |
| C[C@@H](O)[C@H](NC(=O)[C@@H]1CSSC[C@H](NC(=O)[C@@H](Cc2ccccc2)NC(=O)CN2CCN(CC(=O)O)CCN(CC(=O)O)CCN(CC(=O)O)CC2)C(=O)N[C@@H](Cc2ccc(O)cc2)C(=O)N[C@H](Cc2c[nH]c3ccccc23)C(=O)N[C@@H](CCCCN)C(=O)N[C@@H]([C@@H](C)O)C(=O)N1)C(=O)O [^177Lu-C-1, metal not drawn, reference compound] | 0.02 %ID/g | 0.01 %ID/g | 0.07 %ID/g | 0.11 %ID/g | 0.06 %ID/g | 0.05 %ID/g | 0.2 %ID/g | 0.46 %ID/g | 3.88 %ID/g | 1.21 %ID/g | 0.1 %ID/g | 0.07 %ID/g | 0.63 %ID/g | 0.32 %ID/g | 0.01 %ID/g | 0.02 %ID/g | 0.02 %ID/g | 0.08 %ID/g | 0.04 %ID/g | 1.18 %ID/g | tissue uptake at 4 h (in vivo, % ID/g Adrenal gland): 8.73 %ID/g; tissue uptake at 24 h (in vivo, % ID/g Adrenal gland): 0.15 %ID/g; tissue uptake at 72 h (in vivo, % ID/g Adrenal gland): 0.13 %ID/g; tissue uptake at 72 h (in vivo, % ID/g Blood): 0.01 %ID/g; tissue uptake at 72 h (in vivo, % ID/g Femur): 0.08 %ID/g; tissue uptake at 72 h (in vivo, % ID/g Heart): 0.04 %ID/g; tissue uptake at 72 h (in vivo, % ID/g Intestine): 0.11 %ID/g; tissue uptake at 72 h (in vivo, % ID/g Liver): 0.06 %ID/g; tissue uptake at 72 h (in vivo, % ID/g Lung): 0.21 %ID/g; tissue uptake at 72 h (in vivo, % ID/g Muscle): 0.01 %ID/g; tissue uptake at 24 h (in vivo, % ID/g Pancreas): 0.16 %ID/g; tissue uptake at 72 h (in vivo, % ID/g Pancreas): 0.03 %ID/g; tissue uptake at 72 h (in vivo, % ID/g Spleen): 0.05 %ID/g; tissue uptake at 24 h (in vivo, % ID/g Stomach): 0.59 %ID/g; tissue uptake at 72 h (in vivo, % ID/g Stomach): 0.21 %ID/g; tissue uptake at 4 h (in vivo, % ID/g Tumor): 14 %ID/g; tissue uptake at 24 h (in vivo, % ID/g Tumor): 5.76 %ID/g; tissue uptake at 72 h (in vivo, % ID/g Tumor): 4.33 %ID/g |
| CCCC[C@H](NC(=O)[C@H](Cc1c[nH]c2ccccc12)NC(=O)CNC(=O)[C@H](Cc1ccc(O)cc1)NC(=O)[C@H](C)NC(=O)[C@@H](CCC(=O)O)NC(=O)[C@@H](CCC(=O)O)NC(=O)[C@@H](CCC(=O)O)NC(=O)[C@@H](CCC(=O)O)NC(=O)[C@@H](CCC(=O)O)NC(=O)[C@@H](CCC(=O)O)NC(=O)CN1CCN(CC(=O)O)CCN(CC(=O)O)CCN(CC(=O)O)CC1)C(=O)N[C@@H](CC(=O)O)C(=O)N[C@@H](Cc1ccccc1)C(N)=O [^177Lu-C-2, metal not drawn, reference compound] | 0.08 %ID/g | 0.01 %ID/g | 0.12 %ID/g | 0.24 %ID/g | 0.05 %ID/g | 0.04 %ID/g | 0.06 %ID/g | 0.05 %ID/g | 2.72 %ID/g | 0.71 %ID/g | 0.15 %ID/g | 0.12 %ID/g | 0.06 %ID/g | 0.11 %ID/g | 0.06 %ID/g | 0.01 %ID/g | 0.01 %ID/g | 0.06 %ID/g | 0.05 %ID/g | 0.21 %ID/g | tissue uptake at 24 h (in vivo, % ID/g Stomach): 0.17 %ID/g; tissue uptake at 4 h (in vivo, % ID/g Tumor): 1.07 %ID/g; tissue uptake at 24 h (in vivo, % ID/g Tumor): 0.82 %ID/g; tissue uptake at 24 h (pancreas, % ID/g Pancreas, 24 h post-injection, n=3): 0.02 %ID/g |
